Results reported in patent US20040009939A1, “Methods of enhancing immune induction involving MDA-7” (Board of Regent, The University of Texas System, priority 2002, published 2004).
Entries after “also recorded” stand apart in the source; their conditions may differ.

Columns and labels:
STAT-3 = assay: pSTAT-3 Western blot and immunofluorescence; assay type: cell-based, human
Experimental: To determine the regulation of pSTAT-3 expression following the addition of sMDA-7, Western blot analysis was performed as described previously (Wang et al., 2002). Briefly, cells were harvested by trypsinization and resuspended in lysis buffer (62.5 mM Tris-HCl, 2% SDS, 10% glycerol, 4 M urea). Protein samples (50 μg) were each diluted into a 20 μl solution of lysis buffer and 5% 2-mercaptoethanol (Bio-Rad Laboratories, Hercules, Calif.) and heated in a water bath at 95° C. for 5 min. Protein extracts were then separated by 10% SDS-PAGE in a vertical-slab gel electrophoresis cell (Bio-Rad). The separated proteins were transferred from gel to nitrocellulose membrane (Hybond-ECL; Amersham Pharmacia Biotech, Buckinghamshire, England) and then blocked in a blocking solution (5% dry milk and 0.3% Tween 20 in PBS) for 1 hour. Membranes were incubated with the primary antibodies against pSTAT-3 (1:1000), and β-actin (1:10000). The membranes were then incubated with horseradish peroxidase-labeled secondary antibodies (Amersham). Finally, the proteins were visualized on enhanced chemiluminescence film (Hyperfilm, Amersham) by application of Amersham's Enhanced Chemiluminescence Western blotting detection system.
Activation of STAT-3 was also determined by immunofluorescence assay. HUVEC seeded in two-well chamber slides (1×10^4 cells/well) was treated with sMDA-7 (10 ng/ml) for 4 h, washed in PBS, fixed in cold acetic acid and stained for phosphorylated STAT-3 (pSTAT-3) using rabbit anti-human pSTAT-3 antibody (1:1000, Cell Signaling Technology, Beverly, Mass.) and rhodamine labeled anti-rabbit secondary antibody (1:5000; Molecular Probes, Eugene, Oreg.). Slides were mounted using anti-fade mounting reagent (Vector Laboratories). Pictures were taken 1-2 h after staining using a fluorescence microscope.

human PBMC = conditions: cited from earlier work
HUVEC cells = assay: Endothelial cell migration assay; assay type: cell-based, human; conditions: VEGF 100 ng/ml
Experimental: Migration assays were performed using HUVEC cells. Cells were starved overnight in basal medium containing 0.5% fetal bovine serum (FBS), collected and re-suspended in the same medium and seeded at a concentration of 1×10^5 cells/well in the upper surface of a 24-well transwell insert with a filter size of 8 μm (Millipore, Cambridge, Mass.). The insert was placed in a 6-well plate that contained medium plus VEGF (100 ng/ml) or VEGF plus MDA-7 (10 ng/ml). The plates containing the transwell were incubated at 37° C. overnight to allow migration. The following day, the wells were disassembled, membranes fixed in crystal violet and the number of cells that had migrated to the lower wells were counted under high power magnification (×40).

HUVEC = assay: IP-10 and IFN-γ production by ELISA; assay type: cell-based, human; conditions: sMDA-7 treated HUVEC supernatant
Experimental: HUVEC was seeded in six-well plates (1×10^5/well) and treated with sMDA-7 (10 ng/ml). Cell culture supernatant was collected at 6 h, 24 h, and 48 h after treatment, centrifuged at 1200 rpm, and analyzed for IP-10 and IFN-γ protein production using commercially available ELISA kits. Assays were performed as recommended by the manufacturer (R&D Systems, Minneapolis, Minn.). Cells treated with recombinant IFN-γ served as positive controls for IP-10 while cells treated with Ad-mda7 (3000 vp/cell) served as positive control for IFN-γ. Untreated cells served as negative controls in these experiments. Samples were analyzed in quadruplicate and data represented as the average value for each concentration of sMDA-7 tested.

[1] = tested on: bFGF-induced angiogenesis; assay: In vivo angiogenesis Matrigel assay; design: species or system athymic nude mice
Experimental: To determine the anti-angiogenic activity of sMDA-7, an in vivo angiogenesis assay was performed. Briefly, sMDA-7 and bFGF were mixed with 500 μl of matrigel (Beckton and Dickenson) on ice and injected subcutaneously into athymic nude mice. Animals receiving matrigel containing only bFGF (60 ng) served as a positive control while animals receiving matrigel containing no growth factor served as a negative control. Each group consisted of 5 animals. Experiments were terminated on day 10 and the matrigel was harvested, photographed and subjected to hemoglobin analysis as described previously (Caudel et al., 2002).

HUVEC and HMVEC cells = assay: Endothelial cell differentiation (tube formation) assay; assay type: cell-based, human
Experimental: Endothelial cell differentiation (tube formation) assays were done using an in vitro angiogenesis assay kit (Chemicon, Temecula, Calif.). Briefly, HUVEC and HMVEC cells were grown to 80% confluency, collected, resuspended in growth medium and plated at a concentration of 2×10^4 cells/well in a 96-well plate coated with matrigel (Chemicon, Temecula, Calif.). To the wells, varying concentrations of MDA-7 protein were added and incubated for 24 h at 37° C. Wells that were not treated with MDA-7 protein served as a negative control. The ability of sMDA-7 to inhibit tube formation was determined and quantitated by counting the number of tubes under bright field microscopy. All samples were tested in duplicate. For comparative studies using MDA-7 and endostatin (Calbiochem), cells were plated as described above and exposed to varying concentration of the proteins. […] All other experimental procedures were the same as described above.

Serum sMDA-7 by ELISA = assay type: in vivo, nude mice; conditions: animals implanted with 293 cells producing MDA-7
Text: Mice were inoculated subcutaneously with A549 tumor cells in the lower right flank as described in Example 19. When the tumors had reached a size of 50 mm^3, 293 cells producing sMDA-7 (293-mda-7) or parental 293 cells (control) were encapsulated in matrigel and implanted subcutaneously at a site distant (upper right flank) from the tumor and the tumor growth was monitored. […] In comparison to the control, the growth of the tumors was suppressed by 50% after implantation of the encapsulated 293 cells producing MDA-7 protein. To confirm that the inhibitory effect was due to sMDA-7, serum samples from animals were tested for MDA-7 protein by Western blot analysis and ELISA. […] However, faint bands were also observed in the control that may be due to some cross-reactivity with serum proteins. The serum levels of sMDA-7 detected by ELISA was approximately 50 ng/ml.

tumor cells = assay: Tumor cell death by secreted MDA-7 supernatant and bystander mixing; assay type: cell-based, human; conditions: supernatant from 293 cells applied to tumor cell cultures
Experimental: This hypothesis was further tested by adding secreted MDA-7 to tumor cells and monitoring cell death. […] When culture supernatants were treated to minimize Ad-mda7 contamination, negligible cell death was induced by MDA-7 containing supernatants. When supernatant from 293 cells was applied to tumor cell cultures, only low levels of cell death were seen (approximately 10-15% above background levels) confirming that the secreted MDA-7, at least at the concentrations released by these cells, was not sufficient to elicit substantial cell death in tumor cells.
In that study, H460 cells were transduced with Ad-mda7 and immunostained with anti-MDA-7 antibody in conjunction with Annexin V staining. By confocal analysis, it was observed that some cells were Annexin V positive but were negative for MDA-7 expression. The frequency of Annexin V positive/MDA-7 negative cells was low and […] in multiple cells lines. Thus, to further evaluate the contribution of secreted MDA-7 in inducing apoptosis in neighboring cells, a series of bystander experiments were performed. Ad-mda7 transduced cells were mixed with native cells that had been previously labled with Ad-GFP and the cultures were scored for apoptosis in the GFP positive cells.

B1: sMDA-7: secreted, glycosylated MDA-7 protein purified from supernatant of 293-mda-7 cells (protein)
chain: AQGQEFHFGPCQVKGVVPQKLWEAFWAVKDTMQAQDNITSARLLQQEVLQNVSDAESCYLVHTLLEFYLKTVFKNYHNRTVEVRTLKSFSTLANNFVLIVSQLQPSQENEMFSIRDSAHRRFLLFRRAFKQLDVEAALTKALGEVDILLTWMQKFYKL
pSTAT-3 protein expression (STAT-3; HUVEC and HMVEC, Western blot): significant increase in the phosphorylated form of STAT-3 (pSTAT-3) protein expression as early as 4 h | nuclear localization of pSTAT-3 (STAT-3; HUVEC, immunofluorescence): increased nuclear localization of pSTAT-3 protein | time of maximal pSTAT-3 expression (STAT-3; after treatment): 24 h | cytokine induction (human PBMC): causes the induction of IFN-γ, IL-6 and TNF-α | amount giving complete inhibition of migration (HUVEC cells; MDA-7): 50 ng | endothelial cell migration induced by VEGF (HUVEC cells; sMDA-7 10 ng/ml): blocked endothelial cell migration | IFN-γ induction (HUVEC): IP-10 but not IFN-γ was induced | amount of IP-10 produced (HUVEC; various time points): 15 to 32 pg/mL | hemoglobin content in the matrigel ([1]; day 10, vs no bFGF, only bFGF, or endostatin): very significant (p=0.0001) inhibitory effect; also recorded: significant reduction in hemoglobin content | bFGF-induced angiogenesis in matrigel ([1]; sMDA-7 10 ng, 10 days after implantation): inhibition of bFGF-induced angiogenesis | concentration giving complete abrogation of tubular formation (HUVEC and HMVEC cells; HUVEC and HMVEC): 10 ng/mL | inhibition of endothelial tube formation (HUVEC and HMVEC cells; HUVEC and HMVEC, 24 h): significant inhibition of endothelial tube formation | tubular formation in the presence of IL-10R neutralizing antibody (HUVEC and HMVEC cells; HUVEC, antibody 5 ng, sMDA-7 5 ng): able to inhibit tubular formation | tube formation (HUVEC and HMVEC cells; HUVEC, sMDA-7 5 ng): complete inhibition of tube formation | serum levels of sMDA-7 detected by ELISA (Serum sMDA-7 by ELISA): approximately 50 ng/ml | cell death above background levels (tumor cells): 10-15%
